Assay results from the supplement of paper PMC9170038.

System: MS2 coat protein
Experiment: apparent KD of MS2 coat protein; designed switch direction (-1 OFF switch, 1 ON switch): -1; higher = weaker reporter binding
Method in brief: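 Three titration conditions were used: no input, 200 uM small-molecule ligand, and an oligonucleotide input. In each, SNAP-549-labelled MS2 coat protein was raised from 0.7 or 1.5 nM, doubling, to 3 µM over designed RNA switches transcribed on Illumina chips by stalled E. coli RNA polymerase. Curve fits of normalised cluster fluorescence gave values whose per-design median over clusters is the apparent KD.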

[1] = input ligand: microRNA oligo, concentration not stated
[2] = Eterna round: R95, input ligand: FMN 200 uM
[3] = Eterna round: R95, input ligand: microRNA oligo, concentration not stated
[4] = Eterna round: R95, input ligand: none

Row | Sequence | apparent KD of MS2 coat protein (input ligand: FMN 200 uM) | apparent KD of MS2 coat protein [1] | apparent KD of MS2 coat protein (input ligand: none) | apparent KD of MS2 coat protein [2] | apparent KD of MS2 coat protein [3] | apparent KD of MS2 coat protein [4]
1 | AGCGCUUACGUAGGAUAUGCAUGAGGAUCACCCAUGCAACCACAUUUAACAUGAGGAUCACCCAUGUAGAAGGACGGGUGCGCA [pwkr exNG2 2xF5 1xFMN.2] (Eterna round: R96, puzzle: Exclusion NG 2) | 67.8 nM | 20.4 nM | 27.9 nM |  |  | 
2 | CAAAAGGUAGGAUAUACGAAAAAAAAGGGUAGAAAAAAAACACAUGAGGAUCACCCAUGUAGAAGGACCAAAAU [salish99_ex2_r3_054] (puzzle: Exclusion 2) |  |  |  | 90.9 nM | 24.3 nM | 22.5 nM
3 | GAUUAGCAAGUGAGAUCCCACAUGAGGAUCACCCAUGUGCUCGUCUUAUAAGGUACUGUGACGAAAGUCACGGUACC [Mat - Sensor, turn-off var - Eli Mod - D6] (Eterna round: R97, puzzle: Sensor, turn-off variant 1) | 424 nM |  | 226 nM |  |  | 
4 | GUGUCACAUGAGGAUCACCCAUGUGAGGAUAUCAUGCUUCGUAGUAAACUACGAAGUGUGAGAAGGCACAUGAC [Omei Ex1 E1] (Eterna round: R97, puzzle: Exclusion 1) | 71 nM |  | 47.8 nM |  |  | 
5 | GGCCUUCCGCGAGCUUUUUACAUGAGGAUCACCCAUGUGGUUUUUAGUCUUAUCCGGCCGGCCGUGUGGCCGGCCGG [-32.9, -53.8, A 12%] (Eterna round: R97, puzzle: Sensor, turn-off variant 1) | 26.1 nM |  | 30.4 nM |  |  | 
6 | CUAGUCCGAGGAUAUAUUAUGUGAAACAUGAGGAUCACCCAUGUAAUAUGAUGGAAAUAAAUAGAAGGCGGACUAG [Mat - Exclusion 5 - JL mod - D33] (puzzle: Exclusion 5) |  |  |  | 25.7 nM | 30.9 nM | 30.2 nM
7 | UUUUAACAUGAGGAUCACCCAUGUGAGGAUAUCGAAAUUUAUAUUAAUAUUUAUUAUUCGAGAAGGCACAUUUU [JMF 61] (puzzle: Exclusion 1) |  |  |  |  | 119 nM | 
8 | GCACGGUGAGGAUAUAUAAAUGGGCAUGUCGAGAACCGUUCACAUGAGGAUCACCCAUGUAGAAGGCGCCUGUG [Eternabot (L2) Solution 58] (Eterna round: R97, puzzle: Exclusion 2) | 115 nM |  | 49 nM |  |  | 
9 | CGACUGGUAGGAUAUACAUGAGGAUCACCCAUGUACCUGACAUGAGAAUAAACCAUCGGUAGAAGGGCUAAGUC [Eternabot (L2) Solution 79] (Eterna round: R97, puzzle: Exclusion 3) | 21.8 nM |  | 21.3 nM |  |  | 
10 | UACCUGAGGCAAAGCUUUAGGUAAACAUGAGGAUCACCCAUGUAGGAUAUGGUAGGCUUUGCUUACCAGAAGGACAUGUUAAUU [Mat - Exclusion NG 3 - Mod of JL - D33] (Eterna round: R96, puzzle: Exclusion NG 3) | 215 nM | 41.9 nM | 59.7 nM |  |  | 
11 | GUAGAGUCAGGAUAUACAAGAUCGAAAGAUCAAAGGUCCAUACAUGAGGAUCACCCAUGUAGAAGGGACUCUAC [Eli x2 4.09] (Eterna round: R97, puzzle: Exclusion 2) | 36.4 nM |  | 24.5 nM |  |  | 
12 | AUAAUUAAUGCAGGAUAUCAGCACGUUUAGUGCUGAGAAGGGCACAUGAGGAUCACCCAUGUGAUCAAUUAAUAUUAAUAUUAU [ENG1/11-D2] (Eterna round: R96, puzzle: Exclusion NG 1) | 269 nM | 51.1 nM | 65 nM |  |  | 
13 | UCUUUAGGUGUUAGGAUAUACCUGCGCAAAGUUAGGUAGAAGGGACAUGAGGAUCACCCAUGUGCGUCCACAAU [Eternabot (L1) Solution 29] (Eterna round: R97, puzzle: Brourd's mod of Exclusion 4) | 30.4 nM |  | 27.5 nM |  |  | 
14 | AUAUUAAUAUAGGAUAUCGAAAUUAUUAAUUAUCGAGAAGGAUAAACAUGAGGAUCACCCAUGUGGUAUCAUGG [Mat - Exclusion 6 - JL Mod - D41] (puzzle: Exclusion 6) |  |  |  | 257 nM | 257 nM | 328 nM
15 | GAUUACUGCAAGCUUAGGGACAUGAGGAUCACCCAUGUUCGUCUUAUUGAUCUAGGUACGCUGACGUACCUAGAUCU [JL-sv1-2.29 Brourd mod] (puzzle: Sensor v3, turn-off variant 1) |  |  |  | 14.7 nM | 19.4 nM | 13.8 nM
16 | UGAUCUAGCGGAGGAUAUACAUGAGGAUCACCCAUGUAUAGGCUAUGACCGUAGUCGUGGAACAUGUAGAAGGCCGCUAGAUCU [JL ENG2 3.79] (Eterna round: R96, puzzle: Exclusion NG 2) | 569 nM | 40.3 nM | 45.9 nM |  |  | 
17 | UUCCUACAUGAGGAUCACCCAUGUCAGGAUAUCUCCUCACCGCGAAAAGGCGGUGAAAAGAGAAGGGACAGGAA [Usbian] (puzzle: Exclusion 1) |  |  |  | 16 nM | 10.7 nM | 13.8 nM

Row | Sequence | apparent KD of MS2 coat protein (input ligand: FMN 200 uM) | apparent KD of MS2 coat protein [1] | apparent KD of MS2 coat protein (input ligand: none) | apparent KD of MS2 coat protein [2] | apparent KD of MS2 coat protein [3] | apparent KD of MS2 coat protein [4]
18 | AAAAAACAAGGAUAUACGAAGGAGGAUUAUCUUAAUUUUUGACAUGAGGAUCACCCAUGUAGAAGGUGUUAAAA [JR_Exclusion2_Sub009] (puzzle: Exclusion 2) |  |  |  | 83.5 nM | 38.2 nM | 48.4 nM
19 | UACACUGCAUGAGGAUCAAACAUGAGGAUCACCCAUGUAUAGCAAGCUUUUUGCACGUCUUAUAAUUAUGUAGUGUA [Electric Eye 13 - Jieux - Sensor, turn-off variant 1] (Eterna round: R97, puzzle: Sensor, turn-off variant 1) | 15.1 nM |  | 16.2 nM |  |  | 
20 | UUAUGAGUAGGAUAUGAGCCAAAAUACAUGAGGAUCACCCAUGUCGGGUUCAUGGAGGGCUCAGAAGGAUUCAAUA [Exclusion 5 - Laarte Mod] (Eterna round: R97, puzzle: Exclusion 5) | 105 nM |  | 17 nM |  |  | 
21 | CUGAAGAAGUUAGUGGCCUACAUGAGGAUCACCCAUGUGAGGGACAUGUCGAGGCAGAAGCUGAGUGCUCGUCUGUA [JR_SV3TOV1_Sub042] (puzzle: Sensor v3, turn-off variant 1) |  |  |  | 16 nM | 20 nM | 17 nM
22 | GAAAGGGUAGGAUAUACGAAAAAAAAGGGUAGAAAAAAAACACAUGAGGAUCACCCAUGUAGAAGGACCAAAAG [salish99_ex2_r3_033] (puzzle: Exclusion 2) |  |  |  | 40.2 nM | 30.9 nM | 27.2 nM
23 | AUAAUGUAAGGAUAUCAGUCGUACAGCCUCGGCUGUACGACUGAGAAGGUACAUGAGGAUCACCCAUGUGGUCA [E4/9-A2] (Eterna round: R97, puzzle: Exclusion 4) | 103 nM |  | 1040 nM |  |  | 
24 | AGAUAGUGGUGAGGAUAUGAGAAUAGAAAGAAAUCAGAAGGCACACAUGAGGAUCACCCAUGUGAGUUCUUGAGAUUACAUGGU [Prohibition 42 - Jieux - Exclusion NG 1] (Eterna round: R96, puzzle: Exclusion NG 1) | 22.6 nM | 11.3 nM | 15.4 nM |  |  | 
25 | AAUGAGCUAGGAUAUACAUGAGGAUCACCCAUGUAAAAUAGGUCAUGGAUGAACCACUGUAGAAGGAGCAGGGC [Ateseszave] (puzzle: Exclusion 3) |  |  |  | 95.6 nM | 146 nM | 105 nM
26 | CCAAGAAUAGGAUAUACACCAUGUCAGCUUAUAUACAACGCACAUGAGGAUCACCCAUGUAGAAGGGUUCUCUC [Exclusion-2-#2] (Eterna round: R97, puzzle: Exclusion 2) | 571 nM |  | 823 nM |  |  | 
27 | AAAAAACAUGAGGAUCACCCAUGUCAGGAUAUCCGAAAAGAAAAGAAAAAGAAAAAAGGGAGAAGGGACAAAAA [April's ex-date #2] (puzzle: Exclusion 1) |  |  |  | 50.5 nM | 42 nM | 33 nM
28 | GCAGCUAGUUCAGGAUAUCAGCACGUGUAGUGCUGAGAAGGGAACAUGAGGAUCACCCAUGUGAUCAAUGCUGCAAUUUUAAUU [ENG1/12-A3] (Eterna round: R96, puzzle: Exclusion NG 1) | 780 nM | 461 nM | 2260 nM |  |  | 
29 | UAAGAUUAUUGAGGAUAUGGUAAUUUUUAUUAACCAGAAGGCAAACUCAACAUGAGGAUCACCCAUGUAUAAAGGGUAUUAGUU [JR_ExcNG1_Sub096] (Eterna round: R96, puzzle: Exclusion NG 1) |  | 51.2 nM |  |  |  | 
30 | GUUACACAUGAGGAUCACCCAUGUAAGGAUAUGCUGCGGUCGCGCUGACGUGACUGCAGCAGAAGGUACAAAUG [Mat - Mod of JL D56] (puzzle: Exclusion 1) |  |  |  |  | 59.3 nM | 
31 | CUAGAUCUUCGGAUCUAGGACAUGAGGAUCACCCAUGUCACGAGCAGAUCUUCAUGCAAGCUUUUUGCUCGUCUUAU [Sensor v3 - Turn-off variant 1 - 37] (puzzle: Sensor v3, turn-off variant 1) |  |  |  | 27.3 nM | 409 nM | 33.4 nM
32 | UCUCAGCCUAAGGAUAUGAGCCGAACCAAAAGUUCAGAAGGUAGGACAUGAGGAUCACCCAUGUGAGCCUACAC [Eternabot (Original) Solution 39] (Eterna round: R97, puzzle: Exclusion 6) | 34.3 nM |  | 21.3 nM |  |  | 
33 | ACAUGAGGAUCACCCAUGUGAAAACAAUGGCUGACUUUGAGAUAGGAUAUAGGUGCAUAUCAAACCUAGAAGGGUCAUUACUGG [Deportation 91 - Jieux - Exclusion NG 3] (Eterna round: R96, puzzle: Exclusion NG 3) | 46.6 nM | 35.3 nM | 46.5 nM |  |  | 
